Measured values: ChEMBL document CHEMBL1136204, “Thymidine and thymidine-5'-O-monophosphate analogues as inhibitors of Mycobacterium tuberculosis thymidylate kinase” (Bioorg Med Chem Lett, 2003)

Experiments:
[1] = substrate: Cc1cn([C@H]2C[C@H](O)[C@@H](COP(=O)(O)O)O2)c(=O)[nH]c1=O; assay: Affinity towards thymidine monophosphate kinase (TMPKmt) in Mycobacterium tuberculosis using HPLC chromatography test
[2] = substrate: Cc1cn([C@H]2C=C[C@@H](COP(=O)(O)O)O2)c(=O)[nH]c1=O; assay: Affinity towards thymidine monophosphate kinase (TMPKmt) in Mycobacterium tuberculosis

B1: Thymidylate kinase (Mycobacterium tuberculosis), P9WKE1 (protein)
chain: MLIAIEGVDGAGKRTLVEKLSGAFRAAGRSVATLAFPRYGQSVAADIAAEALHGEHGDLASSVYAMATLFALDRAGAVHTIQGLCRGYDVVILDRYVASNAAYSAARLHENAAGKAAAWVQRIEFARLGLPKPDWQVLLAVSAELAGERSRGRAQRDPGRARDNYERDAELQQRTGAVYAELAAQGWGGRWLVVGADVDPGRLAATLAPPDVPS
Km [1]: 40 µM
Km [2]: 140 µM
